Assay results reported in patent US20190263932A1 (Eli Lilly, published 2019).
Where a chain is given by its changes, count along the chain named. Each block holds one binder with its values, some of them ahead of it.

Tests used:
[1] = target: T1, recombinant human TrkA protein (human, UniProt P04629-2 34-407, limits assumed); assay: NGF-blocking ELISA on coated human TrkA, 100 nM btNGF; mAb 0.02 nM
Description: (§1) Each row of a 96-well high-binding clear-bottom microtiter plate (Microlon, #655061) was coated overnight at 4° C. with 100 μL/well of recombinant human TrkA protein, diluted to 2 μg/mL in phosphate buffered saline, pH 7.2 (PBS). The next day, the coating solution was removed, and the plate was blocked with 150 μL of Casein-PBS (Thermo Scientific, #37528) for 1 hour at 25° C. with gentle shaking. The plate was then washed three times with PBS supplemented with 0.05% Tween20 (PBST). A two-fold dilution series of exemplified antibodies, along with IgG4 and IgG1 isotype control antibodies, was generated starting at 20 nM in Casein-PBS. 100 μL of the each dilution series sample was added to a well for 30 min at 37° C. with gentle shaking. The plate was then washed three times with PBST. […] The plate was then washed three times with PBST. A 1:3500 dilution of a 1 mg/mL stock solution of streptavidin-HRP (Thermo Scientific, #21130) in Casein-PBS was prepared and […] was added to each well for 20 min at 37° C. with gentle shaking. The plate was washed three times with PBST. […] The reaction was stopped by addition of 100 μL of 1M H₃PO₄ to each well. The absorbance at 450 nm (Abs450) was measured using a SpectraMax 340PC plate reader (Molecular Devices).

[2] = target: T1, recombinant human TrkA protein; assay: NGF-blocking ELISA on coated human TrkA, 100 nM btNGF
Description: as §1

[3] = target: T1, recombinant human TrkA protein; assay: NGF-blocking ELISA on coated human TrkA, 100 nM btNGF; mAb 0.04 nM
Description: as §1

[4] = target: T1, recombinant human TrkA protein; assay: NGF-blocking ELISA on coated human TrkA, 100 nM btNGF; mAb 0.63 nM
Description: as §1

[5] = target: T1, recombinant human TrkA protein; assay: NGF-blocking ELISA on coated human TrkA, 100 nM btNGF; mAb 5 nM
Description: as §1

[6] = target: T1, recombinant human TrkA protein; assay: NGF-blocking ELISA on coated human TrkA, 100 nM btNGF; mAb 0.31 (printed pM, two-fold series gives nM)
Description: as §1

[7] = target: T2, rat TrkA receptor expressed in transfected HEK293 cells (rat, UniProt P35739 33-799); assay: cell-based or functional assay
T2 sequence (P35739 33-799): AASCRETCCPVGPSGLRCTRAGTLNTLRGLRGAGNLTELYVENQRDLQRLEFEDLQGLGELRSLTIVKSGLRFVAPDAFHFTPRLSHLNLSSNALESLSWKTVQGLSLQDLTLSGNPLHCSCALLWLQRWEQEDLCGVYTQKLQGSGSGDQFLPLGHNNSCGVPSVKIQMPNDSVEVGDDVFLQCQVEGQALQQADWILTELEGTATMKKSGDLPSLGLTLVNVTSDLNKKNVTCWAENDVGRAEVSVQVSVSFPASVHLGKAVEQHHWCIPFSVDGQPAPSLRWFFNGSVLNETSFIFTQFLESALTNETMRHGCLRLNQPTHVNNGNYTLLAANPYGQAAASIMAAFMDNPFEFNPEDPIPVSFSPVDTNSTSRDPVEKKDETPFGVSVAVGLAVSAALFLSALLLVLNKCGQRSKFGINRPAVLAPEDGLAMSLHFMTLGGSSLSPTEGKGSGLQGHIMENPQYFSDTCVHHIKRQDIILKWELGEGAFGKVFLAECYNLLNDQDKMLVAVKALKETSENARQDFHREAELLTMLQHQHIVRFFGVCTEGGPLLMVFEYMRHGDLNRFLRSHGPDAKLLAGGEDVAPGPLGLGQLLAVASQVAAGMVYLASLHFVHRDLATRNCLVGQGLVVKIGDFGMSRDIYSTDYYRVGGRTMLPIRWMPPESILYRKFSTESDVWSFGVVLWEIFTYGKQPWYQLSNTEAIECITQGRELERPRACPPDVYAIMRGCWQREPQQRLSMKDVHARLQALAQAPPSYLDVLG

[8] = target: TrkA on rat NEUROSCREEN-1 cells (pheochromocytoma PC12 subclone) (rat, UniProt P35739 33-799); assay: cell-based or functional assay
Chain of TrkA on rat NEUROSCREEN-1 cells (pheochromocytoma PC12 subclone) (P35739 33-799): as above

[9] = target: T1, recombinant human TrkA protein; assay: NGF-blocking ELISA on coated human TrkA, 100 nM btNGF; mAb 2.5 nM
Description: as §1

[10] = target: T1, recombinant human TrkA protein; assay: NGF-blocking ELISA on coated human TrkA, 100 nM btNGF; mAb 0.08 nM
Description: as §1

[11] = target: T1, recombinant human TrkA protein; assay: NGF-blocking ELISA on coated human TrkA, 100 nM btNGF; mAb 1.25 nM
Description: as §1

[12] = target: T2, rat TrkA receptor expressed in …; assay: cell-based or functional assay; remark: listed apart in the source
[13] = target: T1, recombinant human TrkA protein; assay: NGF-blocking ELISA on coated human TrkA, 100 nM btNGF; mAb 20 nM
[14] = target: T1, recombinant human TrkA protein; assay: NGF-blocking ELISA on coated human TrkA, 100 nM btNGF; mAb 0.16 nM
Description: as §1

[15] = target: T1, recombinant human TrkA protein; assay: NGF-blocking ELISA on coated human TrkA, 100 nM btNGF; mAb 10 nM
Description: as §1

[16] = target: T3, Human TrkA Extracellular Domain Isoform 1 (33-414) (human, UniProt P04629 33-414); assay: SPR, mAb captured on Protein A chip, 37 C
T3 construct: SPR analyte; also called Human TrkA Isoform 1
T3 sequence (P04629 other isoform, or with tags, fused parts or gaps): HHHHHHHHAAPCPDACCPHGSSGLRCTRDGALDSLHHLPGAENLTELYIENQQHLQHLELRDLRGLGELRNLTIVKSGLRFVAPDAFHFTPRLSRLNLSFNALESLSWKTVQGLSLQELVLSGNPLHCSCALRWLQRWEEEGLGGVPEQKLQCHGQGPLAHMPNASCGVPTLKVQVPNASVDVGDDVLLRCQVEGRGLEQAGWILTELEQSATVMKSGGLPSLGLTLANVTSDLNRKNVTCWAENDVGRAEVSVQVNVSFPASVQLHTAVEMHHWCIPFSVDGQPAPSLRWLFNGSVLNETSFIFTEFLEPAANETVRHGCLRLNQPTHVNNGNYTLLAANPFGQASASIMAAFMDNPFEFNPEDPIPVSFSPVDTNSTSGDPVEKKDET
Description: (§2) The binding kinetics and affinity of exemplified antibodies to human, cynomolgus monkey, rat, mouse, and rabbit TrkA are determined as described below using a surface plasmon resonance assay on a BIACORE™ 8K instrument (GE Healthcare). Two different isoforms of human TrkA (isoform 1 and isoform 2) are evaluated along with human TrkB and human TrkC. […] All FC2 on all eight channels are set to capture approximately 89 response units (RU) of antibody at a flow rate of 10 μL/min. The antibody sample is prepared at 1 μg/mL by dilution into the running buffer. […] Before the analysis cycle, the chip is regenerated with 3 injections of glycine (pH ˜1.5) at 100 μL/min for a contact time of 15 seconds on FC1 and FC2 in order to clean the surface of the chip.

[17] = target: T4, Human TrkA Extracellular Domain Isoform 2 (33-408) (human, UniProt P04629 33-414); assay: SPR, mAb captured on Protein A chip, 37 C
T4 construct: SPR analyte; also called Human TrkA Isoform 2
T4 sequence (P04629 other isoform, or with tags, fused parts or gaps): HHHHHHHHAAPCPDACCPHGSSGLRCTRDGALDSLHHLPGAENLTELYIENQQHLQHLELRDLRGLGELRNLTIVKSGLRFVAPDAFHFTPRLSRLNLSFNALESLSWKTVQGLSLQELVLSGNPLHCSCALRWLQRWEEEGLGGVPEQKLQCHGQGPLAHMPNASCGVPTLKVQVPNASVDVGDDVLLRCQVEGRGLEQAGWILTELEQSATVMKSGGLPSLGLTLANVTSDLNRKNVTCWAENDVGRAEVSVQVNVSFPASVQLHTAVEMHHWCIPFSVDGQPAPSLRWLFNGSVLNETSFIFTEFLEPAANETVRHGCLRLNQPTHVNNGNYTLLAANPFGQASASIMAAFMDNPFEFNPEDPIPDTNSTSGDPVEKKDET
Description: as §2

T1 sequence (P04629 other isoform, or with tags, fused parts or gaps limits assumed): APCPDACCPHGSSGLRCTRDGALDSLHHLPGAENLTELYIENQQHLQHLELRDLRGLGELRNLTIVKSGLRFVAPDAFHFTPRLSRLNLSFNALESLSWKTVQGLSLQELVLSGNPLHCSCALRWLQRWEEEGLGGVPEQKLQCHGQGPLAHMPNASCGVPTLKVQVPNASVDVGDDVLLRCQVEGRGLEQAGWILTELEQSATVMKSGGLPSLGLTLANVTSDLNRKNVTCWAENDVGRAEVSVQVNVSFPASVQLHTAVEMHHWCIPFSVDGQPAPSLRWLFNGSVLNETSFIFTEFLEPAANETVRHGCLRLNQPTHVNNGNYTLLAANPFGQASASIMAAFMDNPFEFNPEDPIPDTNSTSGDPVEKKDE

Absorbance 450 nm [1]: 1.05 | IC50 [2]: 0.37 nM | Absorbance 450 nm [3]: 1 | Absorbance 450 nm [4]: 0.38 | Absorbance 450 nm [5]: 0.19 | Absorbance 450 nm [6]: 0.67 | % Max Inhibition, pTrkA [7]: 40% | IC50 (nM), pTrkA [7]: 0.68 nM | pTrkA counts per second, NGF +0.1 pM mAb [7]: 4.53e+06 counts per second | pTrkA counts per second, NGF +1 pM mAb [7]: 4.06e+06 counts per second | pTrkA counts per second, NGF +10 pM mAb [7]: 4.52e+06 counts per second | pTrkA counts per second, NGF +100 pM mAb [7]: 3.79e+06 counts per second | pTrkA counts per second, NGF +1 nM mAb [7]: 3.16e+06 counts per second | pTrkA counts per second, NGF +10 nM mAb [7]: 2.43e+06 counts per second | pTrkA counts per second, NGF +100 nM mAb [7]: 2.59e+06 counts per second | pTrkA counts per second, NGF +1 uM mAb [7]: 1.93e+06 counts per second | % Max Stimulation of neurite outgrowth [8]: 17% | IC50, inhibition of NGF-induced neurite outgrowth [8]: 0.08 nM | Absorbance 450 nm [9]: 0.16 | Absorbance 450 nm [10]: 0.96 | Absorbance 450 nm [11]: 0.19 | % Max stimulation, pTrkA [12]: 77% | EC50 (nM), pTrkA [12]: 0.17 nM | pTrkA counts per second, 0.1 pM mAb, no NGF [12]: 571000 counts per second | pTrkA counts per second, 1 pM mAb, no NGF [12]: 585000 counts per second | pTrkA counts per second, 10 pM mAb, no NGF [12]: 627000 counts per second | pTrkA counts per second, 100 pM mAb, no NGF [12]: 1.25e+06 counts per second | pTrkA counts per second, 1 nM mAb, no NGF [12]: 2.39e+06 counts per second | pTrkA counts per second, 10 nM mAb, no NGF [12]: 2.97e+06 counts per second | pTrkA counts per second, 100 nM mAb, no NGF [12]: 2.85e+06 counts per second | pTrkA counts per second, 1 uM mAb, no NGF [12]: 2.05e+06 counts per second | Absorbance 450 nm [13]: 0.19 | Absorbance 450 nm [14]: 0.89 | Absorbance 450 nm [15]: 0.17 | Kd [16]: 4.4 nM | koff [16]: 0.0012 s⁻¹ | kon [16]: 280000 M⁻¹ s⁻¹ | Kd [17]: 4.9 nM | koff [17]: 0.0013 s⁻¹ | kon [17]: 250000 M⁻¹ s⁻¹
B1: mAb D (antibody, human IgG1, kappa)
heavy: EVQLVESGGGLVKPGGSLRLSCAASGFTFSGVSINWVRQAPGKGLEWVSSETTSSGTIYYADSVKGRFTISRDNAKNSLYLQMNSLRAEDTAVYYCARSYYYGMDVWGQGTTVTVSSASTKGPSVFPLAPSSKSTSGGTAALGCLVKDYFPEPVTVSWNSGALTSGVHTFPAVLQSSGLYSLSSVVTVPSSSLGTQTYICNVNHKPSNTKVDKRVEPKSCDKTHTCPPCPAPEAEGAPSVFLFPPKPKDTLMISRTPEVTCVVVDVSHEDPEVKFNWYVDGVEVHNAKTKPREEQYNSTYRVVSVLTVLHQDWLNGKEYKCKVSNKALPSSIEKTISKAKGQPREPQVYTLPPSREEMTKNQVSLTCLVKGFYPSDIAVEWESNGQPENNYKTTPPVLDSDGSFFLYSKLTVDKSRWQQGNVFSCSVMHEALHNHYTQKSLSLSPGK
light: DIVMTQTPLSSPVTLGQPASISCRSSQSLVHRAGNTYLSWLQQRPGQPPRLLIYKISNRFSGVPDRFSGSGAGTDFTLKISRVEAEDVGVYYCMQARQFPLTFGGGTKVEIKRTVAAPSVFIFPPSDEQLKSGTASVVCLLNNFYPREAKVQWKVDNALQSGNSQESVTEQDSKDSTYSLSSTLTLSKADYEKHKVYACEVTHQGLSSPVTKSFNRGEC
notes: Human IgG1EN/Kappa

Absorbance 450 nm [1]: 1.1 | IC50 [2]: 0.35 nM | Absorbance 450 nm [3]: 1.04 | Absorbance 450 nm [4]: 0.41 | Absorbance 450 nm [5]: 0.21 | Absorbance 450 nm [6]: 0.68 | % Max Inhibition, pTrkA [7]: 37% | IC50 (nM), pTrkA [7]: 0.68 nM | pTrkA counts per second, NGF +0.1 pM mAb [7]: 2.94e+06 counts per second | pTrkA counts per second, NGF +1 pM mAb [7]: 3.38e+06 counts per second | pTrkA counts per second, NGF +10 pM mAb [7]: 3.44e+06 counts per second | pTrkA counts per second, NGF +100 pM mAb [7]: 3.7e+06 counts per second | pTrkA counts per second, NGF +1 nM mAb [7]: 2.27e+06 counts per second | pTrkA counts per second, NGF +10 nM mAb [7]: 2.23e+06 counts per second | pTrkA counts per second, NGF +100 nM mAb [7]: 1.7e+06 counts per second | pTrkA counts per second, NGF +1 uM mAb [7]: 1.88e+06 counts per second | % Max Stimulation of neurite outgrowth [8]: 17% | IC50, inhibition of NGF-induced neurite outgrowth [8]: 0.07 nM | Absorbance 450 nm [9]: 0.19 | Absorbance 450 nm [10]: 1.05 | Absorbance 450 nm [11]: 0.25 | % Max stimulation, pTrkA [12]: 74% | EC50 (nM), pTrkA [12]: 0.3 nM | pTrkA counts per second, 0.1 pM mAb, no NGF [12]: 739000 counts per second | pTrkA counts per second, 1 pM mAb, no NGF [12]: 636000 counts per second | pTrkA counts per second, 10 pM mAb, no NGF [12]: 610000 counts per second | pTrkA counts per second, 100 pM mAb, no NGF [12]: 1.01e+06 counts per second | pTrkA counts per second, 1 nM mAb, no NGF [12]: 1.82e+06 counts per second | pTrkA counts per second, 10 nM mAb, no NGF [12]: 2.46e+06 counts per second | pTrkA counts per second, 100 nM mAb, no NGF [12]: 2.02e+06 counts per second | pTrkA counts per second, 1 uM mAb, no NGF [12]: 2.05e+06 counts per second | Absorbance 450 nm [13]: 0.19 | Absorbance 450 nm [14]: 0.92 | Absorbance 450 nm [15]: 0.19 | Kd [16]: 4.8 nM | koff [16]: 0.0013 s⁻¹ | kon [16]: 270000 M⁻¹ s⁻¹ | Kd [17]: 5.2 nM | koff [17]: 0.0014 s⁻¹ | kon [17]: 260000 M⁻¹ s⁻¹
B2: mAb E (antibody, human IgG1, kappa)
heavy: B1 heavy
light: B1 light with A33Q
notes: Human IgG1EN/Kappa
